Laboratory results as given in patent US20240124607A1 (Merck Sharp & Dohme, published 2024).
Residue numbers refer to the chain shown, from its start. Blank lines part the entries; values can stand above or below the binder they belong to.

What was measured:
human CEACAM5 on cells = target: T1, human CEACAM5 on cells (human, UniProt P06731 35-685); experiment: cell-based or functional assay
T1 sequence: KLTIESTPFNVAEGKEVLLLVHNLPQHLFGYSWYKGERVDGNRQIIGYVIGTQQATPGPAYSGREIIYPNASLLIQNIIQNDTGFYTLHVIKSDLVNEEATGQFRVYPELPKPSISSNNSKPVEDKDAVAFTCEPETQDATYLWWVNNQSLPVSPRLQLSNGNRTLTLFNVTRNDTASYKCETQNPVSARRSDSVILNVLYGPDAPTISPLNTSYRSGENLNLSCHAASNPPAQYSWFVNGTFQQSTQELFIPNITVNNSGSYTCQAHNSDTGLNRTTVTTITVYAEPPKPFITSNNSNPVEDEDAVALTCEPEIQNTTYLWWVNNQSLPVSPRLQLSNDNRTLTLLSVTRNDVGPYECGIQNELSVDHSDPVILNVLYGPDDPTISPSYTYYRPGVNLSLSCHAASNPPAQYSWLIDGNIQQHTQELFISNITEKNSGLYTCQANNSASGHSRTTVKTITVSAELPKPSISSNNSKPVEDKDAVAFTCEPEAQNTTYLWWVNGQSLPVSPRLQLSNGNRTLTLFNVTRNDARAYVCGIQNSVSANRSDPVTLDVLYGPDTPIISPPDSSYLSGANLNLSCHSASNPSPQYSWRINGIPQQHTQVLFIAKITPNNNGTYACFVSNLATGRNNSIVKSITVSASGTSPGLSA

CEACAM5 N-A1-B1-His [1] = target: T2, CEACAM5 N-A1-B1-His (human, UniProt P06731 35-322, limits assumed); experiment: SPR, Fab capt, 25C
T2 sequence: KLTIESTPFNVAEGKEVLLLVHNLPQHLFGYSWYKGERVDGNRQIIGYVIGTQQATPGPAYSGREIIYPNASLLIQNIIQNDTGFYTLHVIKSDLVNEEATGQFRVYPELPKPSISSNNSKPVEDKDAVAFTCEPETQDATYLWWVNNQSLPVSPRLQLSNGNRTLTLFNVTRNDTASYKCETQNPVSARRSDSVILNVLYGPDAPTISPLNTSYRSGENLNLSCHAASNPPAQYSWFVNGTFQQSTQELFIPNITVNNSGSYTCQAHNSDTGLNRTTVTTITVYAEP
Procedure: (§1) If the protein domain was an Fc fusion, AB0411, AB0466, AB0264, or AB0621 were captured using an anti-human Fab antibody (Cytiva, #28958325) immobilized onto a CM5 chip. The various hCEACAM5 protein domains (N-term, A1-B1, A2, B2, A3, or B3) were titrated over the captured TriNKETs at 50 μL/min for 180 sec of association and 300 sec of dissociation. The assay was run at 25° C. in HBS-EP+ running buffer, pH 7.4. The surface of the CM5 chip was regenerated using […] glycine pH 2.1.

hCEACAM5 A2-B2 domain = target: T3, hCEACAM5 A2-B2 domain (human, UniProt P06731 323-500, limits assumed); experiment: SPR with hCEACAM5 domains
T3 sequence: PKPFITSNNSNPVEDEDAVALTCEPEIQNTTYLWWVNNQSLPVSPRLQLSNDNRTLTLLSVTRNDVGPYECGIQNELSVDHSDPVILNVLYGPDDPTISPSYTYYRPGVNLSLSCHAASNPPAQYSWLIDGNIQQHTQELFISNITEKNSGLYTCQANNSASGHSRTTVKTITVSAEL
Procedure: as §1
(§2) The various hCEACAM5 protein domains were titrated over the captured antibody at 50 μL/min for 180 sec of association and 300 sec of dissociation. The assay was run at 37° C. in HBS-EP+ running buffer, pH 7.4. The surface of the CM5 chip was regenerated using 3M MgCl₂.

hCEACAM5 A3-B3 domain = target: T4, hCEACAM5 A3-B3 domain (human, UniProt P06731 501-685, limits assumed); experiment: SPR with hCEACAM5 domains
T4 sequence: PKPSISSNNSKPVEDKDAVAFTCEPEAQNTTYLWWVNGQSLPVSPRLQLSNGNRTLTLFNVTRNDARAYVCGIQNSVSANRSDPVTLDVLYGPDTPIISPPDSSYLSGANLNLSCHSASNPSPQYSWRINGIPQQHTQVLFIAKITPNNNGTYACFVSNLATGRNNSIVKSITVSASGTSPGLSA
Procedure: as §1, §2

Cyno NKG2D-mFc = target: T5, Cyno NKG2D-mFc (cynomolgus monkey, UniProt P61252 78-216, limits assumed); experiment: SPR, NKG2D-mFc captured, 37C, pH 6.0
T5 construct: also called cynomolgus NKG2D fused to a mouse Fc
T5 sequence (looked up): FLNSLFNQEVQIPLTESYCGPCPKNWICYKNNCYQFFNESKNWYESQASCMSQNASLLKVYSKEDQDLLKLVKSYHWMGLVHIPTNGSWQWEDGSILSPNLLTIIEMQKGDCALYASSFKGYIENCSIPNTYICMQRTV
Procedure: (§3) Binding to NKG2D was assessed by SPR using a mouse Fc capture kit (Cytiva, #BR100838) immobilized onto a CM5 chip. Human and cynomolgus NKG2D fused to a mouse Fc were captured and AB0411, AB0466, or AB0621 was titrated from 600 nM.

[2] = target: T6, soluble mouse Fc-human NKG2D dimer (human, UniProt P26718 78-216, limits assumed); experiment: SPR, NKG2D-mFc captured, 37C, pH 6.0
T6 construct: also called NKG2D-mFc; human NKG2D fused to a mouse Fc
T6 sequence (looked up): T5 sequence (looked up) with N38D, I128T
Procedure: as §3

CEACAM5 Nterm IgV-His = target: T7, CEACAM5 Nterm IgV-His (human, UniProt P06731 35-144); experiment: SPR, hFc capt, 37C
T7 construct: also called N-term domain of hCEACAM5
T7 sequence: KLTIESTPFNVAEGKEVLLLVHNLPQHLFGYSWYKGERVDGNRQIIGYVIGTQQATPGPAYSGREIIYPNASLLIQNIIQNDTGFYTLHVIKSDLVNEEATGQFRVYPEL
Procedure: as §2

CEACAM5 N-A1-B1-His [3] = target: T2, CEACAM5 N-A1-B1-His; experiment: SPR, hFc capt, 37C
Procedure: as §2

EC50 (nM), NK lysis of LS-174T (DELFIA) (human CEACAM5 on cells): 0.32 nM
EC50 (nM), NK lysis of SK-CO-1 (DELFIA) (human CEACAM5 on cells): 4.55 nM
EC50 (nM), NK lysis of ZR-75-30 (DELFIA) (human CEACAM5 on cells): 0.17 nM
Kd (CEACAM5 N-A1-B1-His [1]): 0.95 nM
kon (CEACAM5 N-A1-B1-His [1]): 300000 M⁻¹ s⁻¹
binding result (hCEACAM5 A2-B2 domain): no binding
binding result (hCEACAM5 A3-B3 domain): no binding
Kd (Cyno NKG2D-mFc): 500 nM
koff (Cyno NKG2D-mFc): 0.14 s⁻¹
kon (Cyno NKG2D-mFc): 270000 M⁻¹ s⁻¹
Kd [2]: 490 nM
koff [2]: 0.13 s⁻¹
kon [2]: 280000 M⁻¹ s⁻¹
Kd (CEACAM5 Nterm IgV-His): 0.31 nM
kon (CEACAM5 Nterm IgV-His): 1.4e+06 M⁻¹ s⁻¹
Kd (CEACAM5 N-A1-B1-His [3]): 1.2 nM
kon (CEACAM5 N-A1-B1-His [3]): 360000 M⁻¹ s⁻¹
B1: AB0411 F3' CEACAM5 TriNKET (bispecific antibody, human IgG1, kappa)
chain: DIQLTQSPATLSVSPGERATLSCRASQSVSSSYLAWYQQKPGQAPRLLIYGASSRATGIPDRFSGSGSGTDFTLTISRLEPEDFAVYYCQQYNNWPLTFGCGTKVEIKGGGGSGGGGSGGGGSGGGGSQVQLVQSGGGLVQPGGSLRLSCAASGFTFTSYAMSWVRQAPGKCLEWVSAISGTGDSTFYADSVKGRFTFSRDNSKNTLYLQMNSLRAEDTAVYYCAKDLGWLQYGLFDYWGQGTLVTVSSGSDKTHTCPPCPAPELLGGPSVFLFPPKPKDTLMISRTPEVTCVVVDVSHEDPEVKFNWYVDGVEVHNAKTKPREEQYNSTYRVVSVLTVLHQDWLNGKEYKCKVSNKALPAPIEKTISKAKGQPREPRVYTLPPCRDELTKNQVSLTCLVKGFYPSDIAVEWESNGQPENNYKTTPPVLVSDGSFTLYSKLTVDKSRWQQGNVFSCSVMHEALHNHYTQKSLSLSPG
heavy: EVQLVESGGGLVKPGGSLRLSCAASGFTFSSYSMNWVRQAPGKGLEWVSSISSSSSYIYYADSVKGRFTISRDNAKNSLYLQMNSLRAEDTAVYYCARGAPIGAAAGWFDPWGQGTLVTVSSASTKGPSVFPLAPSSKSTSGGTAALGCLVKDYFPEPVTVSWNSGALTSGVHTFPAVLQSSGLYSLSSVVTVPSSSLGTQTYICNVNHKPSNTKVDKKVEPKSCDKTHTCPPCPAPELLGGPSVFLFPPKPKDTLMISRTPEVTCVVVDVSHEDPEVKFNWYVDGVEVHNAKTKPREEQYNSTYRVVSVLTVLHQDWLNGKEYKCKVSNKALPAPIEKTISKAKGQPREPQVCTLPPSRDELTENQVSLTCLVKGFYPSDIAVEWESNGQPENNYKTTPPVLDSDGSFFLYSWLTVDKSRWQQGNVFSCSVMHEALHNHYTQKSLSLSPG
light: DIQMTQSPSSVSASVGDRVTITCRASQGISSWLAWYQQKPGKAPKLLIYAASSLQSGVPSRFSGSGSGTDFTLTISSLQPEDFATYYCQQGVSFPRTFGGGTKVEIKRTVAAPSVFIFPPSDEQLKSGTASVVCLLNNFYPREAKVQWKVDNALQSGNSQESVTEQDSKDSTYSLSSTLTLSKADYEKHKVYACEVTHQGLSSPVTKSFNRGEC
Max Killing (%), HPAF-II (human CEACAM5 on cells): 28.3%
Max Killing (%), LS-174T (human CEACAM5 on cells): 28.9%
Max Killing (%), SK-CO-1 (human CEACAM5 on cells): 84%
Max Killing (%), ZR-75-30 (human CEACAM5 on cells): 25.9%

Kd (CEACAM5 N-A1-B1-His [1]): 1.1 nM
kon (CEACAM5 N-A1-B1-His [1]): 410000 M⁻¹ s⁻¹
binding result (hCEACAM5 A2-B2 domain): no binding
binding result (hCEACAM5 A3-B3 domain): no binding
B2: AB0264 F3' CEACAM5 TriNKET (bispecific antibody, human IgG1, kappa)
chain: DIVMTQSPDSLAVSLGERATINCKSSHSLLYGNFQNNYLAWYQQKPGQPPKLLIYWASTRESGVPDRFSGSGSGTDFTLTISSLQAEDVAVYYCQQYYSYPYTFGCGTKLEIKGGGGSGGGGSGGGGSGGGGSQVQLVQSGAEVKKPGASVKVSCKASGYTFTAYTIHWVRQAPGQCLEWMGYINPSSGYTEYNQKFKDRTTLTADTSIPTAYMELSRLRSDDTAVYYCTREGGLLWFDYWGQGTLVTVSSGSDKTHTCPPCPAPELLGGPSVFLFPPKPKDTLMISRTPEVTCVVVDVSHEDPEVKFNWYVDGVEVHNAKTKPREEQYNSTYRVVSVLTVLHQDWLNGKEYKCKVSNKALPAPIEKTISKAKGQPREPRVYTLPPCRDELTKNQVSLTCLVKGFYPSDIAVEWESNGQPENNYKTTPPVLVSDGSFTLYSKLTVDKSRWQQGNVFSCSVMHEALHNHYTQKSLSLSPG
heavy: B1 heavy
light: B1 light
